Experimental data reported in publication PMC5610305.

Experiments:
[1] = molecular target: Plasmodium falciparum actin I (unlabeled) (Plasmodium falciparum) (UniProt Q8I4X0); assay: co-sedimentation; pelleting assay: unlabeled actin polymerized overnight at 22 °C in F-buffer (50 mM KCl, 4 mM MgCl2, 1 mM EGTA), ultracentrifugation at 434,500 g or 100,000 g, 20 °C, 1 h; supernatant and pellet by SDS-PAGE densitometry; also at different actin concentrations
[2] = molecular target: Plasmodium falciparum actin I (unlabeled) (Plasmodium falciparum) (UniProt Q8I4X0); assay: native gel or EMSA; native PAGE of 25 µM polymerized PfActI with and without ultracentrifugation at 434,500 g; running buffer with sample-matched ATP:ADP ratio and 0.1 mM MgCl2; SYPRO Orange, densitometry
[3] = molecular target: Plasmodium falciparum actin I, pyrene-labeled (Plasmodium falciparum) (UniProt Q8I4X0); assay: other fluorescence titration; steady-state critical concentration in F-buffer: pyrene-labeled actin polymerized, diluted to a series of concentrations up to 5 µM, 16 h at 20 °C (methods: overnight at 22 °C); two-line fit of pyrene fluorescence
[4] = molecular target: Plasmodium falciparum actin I, pyrene-labeled (Plasmodium falciparum) (UniProt Q8I4X0); assay: other fluorescence titration; steady-state critical concentration in classical non-polymerizing buffer (G-buffer): pyrene-labeled PfActI, 16 h at 20 °C; two-line fit of pyrene fluorescence
[5] = molecular target: Plasmodium falciparum actin I, pyrene-labeled (Plasmodium falciparum) (UniProt Q8I4X0); assay: dilution-induced depolymerization (pyrene fluorescence); 30% pyrene-labeled actins, 5 µM polymerized overnight, diluted 100-fold to 50 nM in F-buffer; single-phase exponential decay fit

% of total protein in the pellet (100,000 g) [1] [%] | % of total protein in the pellet (434,500 g) [1] [%] | % of total band intensity as dimers [2] [%] | % of total band intensity as polymers [2] [%] | monomer concentration left at steady state (from the monomer band) [2] [µM] | stoichiometry N [2] | Cc (critical concentration, F-buffer, the experiment shown) [3] [µM] | Cc (critical concentration, steady state, F-buffer) [3] [µM] | Cc (critical concentration, G-buffer, the experiment shown) [4] [µM] | Cc (critical concentration, steady state, G-buffer) [4] [µM] | apparent rate constant of depolymerization (single-phase decay) [5] [s⁻¹] | depolymerization rate constant adjusted by filament concentration (100 nm filament length assumed) [5] [s⁻¹] | half-time of depolymerization [5] [s] | Substance
60 | 70 | 56.2 | 43.4 | 0.11 | 2 |  |  |  |  |  |  |  | Plasmodium falciparum actin I (unlabeled) (from UniProt Q8I4X0 1-376) (natural protein)
 |  |  |  |  |  | 0.13 | 0.11 | 0.04 | 0.06 | 0.0093 | 0.4 | 74 | Plasmodium falciparum actin I, pyrene-labeled (from UniProt Q8I4X0 1-376) (natural protein)
